# B1: murine MLC1 (natural protein, mouse (endogenous in C57BL/6J brain), UniProt Q8VHK5 1-382, looked up)
# chain: MTREGQFREELGYDRMPTLERGRQDAGRQDPGSYTPDSKPKDLQLSKRLPPCFSYKTWVFSVLMGSCLLVTSGFSLYLGNVFPSEMDYLRCAAGSCIPSAIVSFAVGRRNVSAIPNFQILFVSTFAVTTTCLIWFGCKLILNPSAININFNLILLLLLELLMAATVIISARSSEEPCKKKKGSISDGSNILDEVTFPARVLKSYSVVEVIAGVSAVLGGVIALNVEEAVSGPHLSVTFFWILVACFPSAIASHVTAECPSKCLVEVLIAISSLTSPLLFTASGYLSFSVMRVVEIFKDYPPAIKSYDVLLLLLLLLLLLQGGLNTGTAIQCVSFKVSARLQAASWDPQSCPQERPAGEVVRGPLKEFDKEKAWRAVVVQMAQ
# Molecular target: the molecule itself
# Test: western blot after SDS-PAGE of partially denatured samples
protein,measurement,value
B1,stoichiometry N,2
